From patent US20080058263A1 (published 2008)

T1: VEGFR-3-Fc (UniProt P35916 25-328)
T1 construct: domain: first three Ig domains; conditioned supernatant of 293T cells; also called VEGFR-3-Fc fusion protein; not shown: Fc fragment of the pIg vector
T1 sequence (looked up): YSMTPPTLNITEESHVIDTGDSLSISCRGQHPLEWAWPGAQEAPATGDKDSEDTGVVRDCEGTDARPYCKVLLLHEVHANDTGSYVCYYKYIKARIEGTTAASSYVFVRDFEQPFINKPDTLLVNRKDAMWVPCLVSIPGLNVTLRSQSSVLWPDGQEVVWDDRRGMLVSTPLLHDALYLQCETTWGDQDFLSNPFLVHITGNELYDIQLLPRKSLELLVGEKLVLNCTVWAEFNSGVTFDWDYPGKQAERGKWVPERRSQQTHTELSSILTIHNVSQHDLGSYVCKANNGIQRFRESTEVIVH


Tests used:
Experiment in all cases: receptor-Fc IP
VEGFR-2-Fc = target: T2, VEGFR-2-Fc (UniProt P35968 20-322)
T2 construct: domain: first 3 Ig domains; conditioned supernatant of 293T cells; also called VEGFR-2-Fc fusion protein; not shown: Fc fragment of the pIg vector
T2 sequence (P35968 20-322): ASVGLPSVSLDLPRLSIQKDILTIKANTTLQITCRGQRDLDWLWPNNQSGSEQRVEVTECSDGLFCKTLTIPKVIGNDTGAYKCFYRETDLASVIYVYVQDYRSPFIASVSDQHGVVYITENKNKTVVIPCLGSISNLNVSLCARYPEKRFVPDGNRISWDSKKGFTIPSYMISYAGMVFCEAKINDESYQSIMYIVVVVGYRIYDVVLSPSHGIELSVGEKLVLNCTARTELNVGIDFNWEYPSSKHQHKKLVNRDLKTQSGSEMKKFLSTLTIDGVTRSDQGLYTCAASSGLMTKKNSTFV
Summary of the method: (§1)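 fusion protein at 400 ng/ml in an IP mix (PBS, 1.5% BSA, 0.06% Tween 20, 3 μg/ml heparin) was combined with sample supernatant at a 1:2 ratio. Bound ligand captured by immunoprecipitation with pentahistidine antibody.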

VEGFR-3-Fc = target: T1, VEGFR-3-Fc
Summary of the method: as §1

VEGFR-1-Fc = target: T3, VEGFR-1-Fc (UniProt P17948 27-338)
T3 construct: domain: first three Ig domains; expressed in Drosophila S2 cells, purified on Protein A sepharose; also called VEGFR-1-Fc fusion protein; not shown: Fc fragment from the Signal-pIgPlus vector
T3 sequence (P17948 27-338): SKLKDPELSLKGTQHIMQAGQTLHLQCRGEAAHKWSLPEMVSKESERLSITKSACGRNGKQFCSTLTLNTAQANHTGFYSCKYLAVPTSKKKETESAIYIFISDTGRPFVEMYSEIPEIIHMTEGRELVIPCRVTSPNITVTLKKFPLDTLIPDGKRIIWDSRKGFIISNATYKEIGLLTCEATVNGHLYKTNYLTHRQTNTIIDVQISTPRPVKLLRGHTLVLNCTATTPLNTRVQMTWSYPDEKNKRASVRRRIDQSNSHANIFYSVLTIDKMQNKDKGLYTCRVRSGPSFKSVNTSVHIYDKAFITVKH
Summary of the method: as §1

Row | Binder | binding result (VEGFR-2-Fc) | binding result (VEGFR-3-Fc) | binding result (VEGFR-1-Fc)
1 | 13-9 (ligand) GQNHHEVVKFMDVYQRSYCHPIETLVDIFQEYPDEIEYIFKPPCVSVYRCGGCCNDEGLECVPTEESNITMQIMRITVPLSQGPKPVTISFLQHNKCECRPKKD | no binding | no binding | binds
2 | 13-11 (ligand) GQNHHEVVKFMDVYQRSYCHPIETLVDIFQEYPDEIEYIFKPPCVSVYRCGGCCNSEGLQCVPTEESNITMQIMRITVPLSQGPKPVTISFLQHNKCECRPKKD | no binding | no binding | binds
3 | 22-13 (ligand) AHYNTEILKSIDNEWRKTQCMPREVCIDVGKEFGVATNTFFKPPCVSVYRCGGCCNDEGLECVPTEESNITMQIMRITVPLSQGPKPVTISFANHTSCRCMSKLD | no binding | no binding | no binding
4 | 22-15 (ligand) AHYNTEILKSIDNEWRKTQCMPREVCIDVGKEFGVATNTFFKPPCVSVYRCGGCCNSEGLQCVPTEESNITMQIMRITVPLSQGPKPVTISFANHTSCRCMSKLD | no binding | no binding | no binding
5 | 24-5 (ligand) AHYNTEILKSIDNEWRKTQCMPREVCIDVGKEFGVATNTFFKPSCVPLMRCGGCCNDEGLECVPTEESNITMQIMRIKPHQGQHIGEMSFANHTSCRCMSKLD | no binding | no binding | no binding
6 | 21-7 (ligand) AHYNTEILKSIDNEWRKTQCMPREVCIDVGKEYPDEIEYIFKPSCVPLMRCGGCCNSEGLQCVPTEESNITMQIMRIKPHQGQHIGEMSFANHTSCRCMSKLD | no binding | no binding | no binding
7 | 23-5 (ligand) AHYNTEILKSIDNEWRKTQCMPREVCIDVGKEYPDEIEYIFKPPCVSVYRCGGCCNDEGLECVPTEESNITMQIMRIKPHQGQHIGEMSFANHTSCRCMSKLD | no binding | no binding | no binding
8 | 22-5 (ligand) AHYNTEILKSIDNEWRKTQCMPREVCIDVGKEFGVATNTFFKPPCVSVYRCGGCCNDEGLECVPTEESNITMQIMRIKPHQGQHIGEMSFANHTSCRCMSKLD | no binding | no binding | no binding
9 | 22-7 (ligand) AHYNTEILKSIDNEWRKTQCMPREVCIDVGKEFGVATNTFFKPPCVSVYRCGGCCNSEGLQCVPTEESNITMQIMRIKPHQGQHIGEMSFANHTSCRCMSKLD | no binding | no binding | no binding
10 | 24-1 (ligand) AHYNTEILKSIDNEWRKTQCMPREVCIDVGKEFGVATNTFFKPSCVPLMRCGGCCNDEGLECVPTEESNITMQIMRIKPHQGQHIGEMSFLQHNKCECRPKKD | no binding | no binding | no binding
11 | 21-5 (ligand) AHYNTEILKSIDNEWRKTQCMPREVCIDVGKEYPDEIEYIFKPSCVPLMRCGGCCNDEGLECVPTEESNITMQIMRIKPHQGQHIGEMSFANHTSCRCMSKLD | no binding | no binding | no binding
12 | 72-1 (ligand) GQNHHEVVKSIDNEWRKTQCMPREVCIDVGKEFGVATNTFFKPPCVSVYRCGGCCNDEGLECVPTEESNITMQIMRIKPHQGQHIGEMSFLQHNKCECRPKKD | no binding | no binding | no binding
13 | 72-3 (ligand) GQNHHEVVKSIDNEWRKTQCMPREVCIDVGKEFGVATNTFFKPPCVSVYRCGGCCNSEGLQCVPTEESNITMQIMRIKPHQGQHIGEMSFLQHNKCECRPKKD | no binding | no binding | no binding
14 | 31-1 (ligand) GQNHHEVVKSIDNEWRKTQCMPIETLVDIFQEYPDEIEYIFKPSCVPLMRCGGCCNDEGLECVPTEESNITMQIMRIKPHQGQHIGEMSFLQHNKCECRPKKD | no binding | no binding | no binding
15 | 14-1 (ligand) GQNHHEVVKFMDVYQRSYCHPIETLVDIFQEFGVATNTFFKPSCVPLMRCGGCCNDEGLECVPTEESNITMQIMRIKPHQGQHIGEMSFLQHNKCECRPKKD | no binding | no binding | binds
16 | 14-7 (ligand) GQNHHEVVKFMDVYQRSYCHPIETLVDIFQEFGVATNTFFKPSCVPLMRCGGCCNSEGLQCVPTEESNITMQIMRIKPHQGQHIGEMSFANHTSCRCMSKLD | binds | no binding | no binding
17 | 14-3 (ligand) GQNHHEVVKFMDVYQRSYCHPIETLVDIFQEFGVATNTFFKPSCVPLMRCGGCCNSEGLQCVPTEESNITMQIMRIKPHQGQHIGEMSFLQHNKCECRPKKD | binds | no binding | binds
18 | 14-5 (ligand) GQNHHEVVKFMDVYQRSYCHPIETLVDIFQEFGVATNTFFKPSCVPLMRCGGCCNDEGLECVPTEESNITMQIMRIKPHQGQHIGEMSFANHTSCRCMSKLD | no binding | no binding | binds
19 | 13-1 (ligand) GQNHHEVVKFMDVYQRSYCHPIETLVDIFQEYPDEIEYIFKPPCVSVYRCGGCCNDEGLECVPTEESNITMQIMRIKPHQGQHIGEMSFLQHNKCECRPKKD | binds | no binding | binds
20 | 13-5 (ligand) GQNHHEVVKFMDVYQRSYCHPIETLVDIFQEYPDEIEYIFKPPCVSVYRCGGCCNDEGLECVPTEESNITMQIMRIKPHQGQHIGEMSFANHTSCRCMSKLD | binds | no binding | binds
21 | 13-7 (ligand) GQNHHEVVKFMDVYQRSYCHPIETLVDIFQEYPDEIEYIFKPPCVSVYRCGGCCNSEGLQCVPTEESNITMQIMRIKPHQGQHIGEMSFANHTSCRCMSKLD | binds | no binding | binds
22 | 81-9 (ligand) AHYNTEILKFMDVYQRSYCHPIETLVDIFQEYPDEIEYIFKPSCVPLMRCGGCCNDEGLECVPTEESNITMQIMRITVPLSQGPKPVTISFLQHNKCECRPKKD | no binding | no binding | binds
23 | 81-11 (ligand) AHYNTEILKFMDVYQRSYCHPIETLVDIFQEYPDEIEYIFKPSCVPLMRCGGCCNSEGLQCVPTEESNITMQIMRITVPLSQGPKPVTISFLQHNKCECRPKKD | binds | no binding | binds
24 | 81-15 (ligand) AHYNTEILKFMDVYQRSYCHPIETLVDIFQEYPDEIEYIFKPSCVPLMRCGGCCNSEGLQCVPTEESNITMQIMRITVPLSQGPKPVTISFANHTSCRCMSKLD | binds | no binding | binds
25 | 81-13 (ligand) AHYNTEILKFMDVYQRSYCHPIETLVDIFQEYPDEIEYIFKPSCVPLMRCGGCCNDEGLECVPTEESNITMQIMRITVPLSQGPKPVTISFANHTSCRCMSKLD | no binding | no binding | binds
26 | 84-7 (ligand) AHYNTEILKFMDVYQRSYCHPIETLVDIFQEFGVATNTFFKPSCVPLMRCGGCCNSEGLQCVPTEESNITMQIMRIKPHQGQHIGEMSFANHTSCRCMSKLD | no binding | no binding | no binding
